This note sets out measurements from article PMC5492955.

The assay deals with the single-site mutations V130C and L210C. The assay can be described thus: radioligand binding.

For “glucagon (from UniProt P01275) (peptide)”, the glucagon binding (% of WT) turned out to be 50%.
